Assay results: US20240132578A1

Columns and labels:
Assay in all cases: cell-based or functional assay
[1] = biological target: HIV-1 Env of isolate APV_13, clade B (HIV-1)
[2] = biological target: HIV-1 envelope glycoprotein (Env) of isolate MGRM-C-024 (HIV-1)
[3] = biological target: HIV-1 envelope glycoprotein (Env) of isolate MGRM-C-010 (HIV-1)
[4] = biological target: HIV-1 Env of isolate MGRM-D-003 (clade D pseudovirus) (HIV-1)
[5] = biological target: HIV-1 Env of pseudovirus MGRM-F1-022 (clade F) (HIV-1)
[6] = biological target: HIV-1 Env of isolate 93RW029 (clade A pseudovirus) (HIV-1)
[7] = biological target: HIV-1 MGRM-G-004 Env (pseudovirus) (HIV-1)
[8] = biological target: HIV-1 Env of pseudovirus MGRM-F1-006 (clade F) (HIV-1)
[9] = biological target: HIV-1 Env of isolate MGRM-D-004 (clade D pseudovirus) (HIV-1)
[10] = biological target: HIV-1 Env of isolate MGRM-A-011 (clade A pseudovirus) (HIV-1)
[11] = biological target: HIV-1 Env of pseudovirus MGRM-G-025 (HIV-1)
[12] = biological target: HIV-1 Env of isolate MGRM-Chronic-B-002, clade B (HIV-1)
[13] = biological target: HIV-1 Env of isolate MGRM-D-002 (clade D pseudovirus) (HIV-1)
[14] = biological target: HIV-1 Env of isolate MGRM-A-002 (clade A pseudovirus) (HIV-1)
[15] = biological target: HIV-1 envelope glycoprotein (Env) of isolate 92UG037, subtype A (HIV-1)
[16] = biological target: HIV-1 envelope glycoprotein (Env) of isolate MGRM-AE-001, subtype AE (HIV-1)
[17] = biological target: HIV-1 envelope glycoprotein (Env) of isolate MG RM-A-010, subtype A (HIV-1)
[18] = biological target: HIV-1 92UG024 envelope protein (Env) on pseudovirus (HIV-1)
[19] = biological target: HIV-1 envelope glycoprotein (Env) of isolate MGRM-Chronic-B-023, on pseudovirus (HIV-1)
[20] = biological target: HIV-1 JR-CSF Env S334A (HIV-1 isolate JR-CSF) (UniProt P20871)
[21] = biological target: HIV-1 94UG103 Env (HIV-1)
[22] = biological target: HIV-1 Env of isolate MGRM-AG-013 (pseudovirus) (HIV-1)
[23] = biological target: HIV-1 NL43 Env (HIV-1)
[24] = biological target: HIV-1 JR-CSF Env I424A (HIV-1 (isolate JR-CSF)) (UniProt P20871)
[25] = biological target: HIV-1 Env of isolate MGRM-AG-001 (pseudovirus) (HIV-1)
[26] = biological target: HIV-1 Env of isolate MGRM-F1-013 (pseudovirus) (HIV-1)
[27] = biological target: HIV-1 Env of isolate MGRM-A-007 (subtype A) (HIV-1)
[28] = biological target: HIV-1 Env of isolate MGRM-D-005 (pseudovirus) (HIV-1)
[29] = biological target: HIV-1 Env of pseudovirus isolate MGRM-C-006 (clade C) (HIV-1)
[30] = biological target: HIV-1 Env of isolate MGRM-F1-016 (HIV-1)
[31] = biological target: HIV-1 Env of isolate MGRM-D-019 (pseudovirus) (HIV-1)
[32] = biological target: HIV-1 Env of isolate MGRM-D-021 (pseudovirus) (HIV-1)
[33] = biological target: HIV-1 Env of isolate MGRM-A-012 (subtype A) (HIV-1)
[34] = biological target: HIV-1 Env of pseudovirus isolate MGRM-C-009 (clade C) (HIV-1)
[35] = biological target: HIV-1 Env of isolate 92UG114 (pseudovirus) (HIV-1)
[36] = biological target: HIV-1 Env of isolate MGRM-F1-018 (HIV-1)

Chain of 1443_C16 (PG16) (TCN-116) (antibody) (VH): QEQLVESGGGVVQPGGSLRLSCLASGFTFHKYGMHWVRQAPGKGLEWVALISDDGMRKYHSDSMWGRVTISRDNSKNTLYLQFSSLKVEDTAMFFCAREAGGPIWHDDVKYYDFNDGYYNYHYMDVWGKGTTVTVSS
Chain of 1443_C16 (PG16) (TCN-116) (antibody) (VL): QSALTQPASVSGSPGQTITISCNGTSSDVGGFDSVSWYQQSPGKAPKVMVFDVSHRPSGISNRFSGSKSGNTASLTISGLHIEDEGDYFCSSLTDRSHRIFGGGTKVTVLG

2F5 (antibody)
IC50 (µg/ml), pseudovirus neutralization [1]: 3.81 µg/mL
IC50 (µg/ml), pseudovirus neutralization [2]: > 50 µg/mL
IC50 (µg/ml), pseudovirus neutralization [3]: > 50 µg/mL
IC50, pseudovirus neutralization [4]: > 50 µg/mL
IC50 [5]: 1.26 µg/mL
IC50 (µg/ml), pseudovirus neutralization [6]: > 50 µg/mL
IC50 (µg/ml), pseudovirus neutralization [7]: > 50 µg/mL
IC50 [8]: 1.1 µg/mL
IC50, pseudovirus neutralization [9]: 2.3 µg/mL
IC50 (µg/ml), pseudovirus neutralization [10]: > 50 µg/mL
IC50 (µg/ml), pseudovirus neutralization [11]: > 50 µg/mL
IC50 (µg/ml), pseudovirus neutralization [12]: 1.25 µg/mL
IC50, pseudovirus neutralization [13]: 24.6 µg/mL
IC50 (µg/ml), pseudovirus neutralization [14]: > 50 µg/mL

b12 (antibody)
IC50 (µg/ml), pseudovirus neutralization [1]: > 50 µg/mL
IC50 (µg/ml), pseudovirus neutralization [2]: > 50 µg/mL
IC50 (µg/ml), pseudovirus neutralization [3]: > 50 µg/mL
IC50, pseudovirus neutralization [4]: > 50 µg/mL
IC50 [5]: > 50 µg/mL
IC50 (µg/ml), pseudovirus neutralization [6]: > 50 µg/mL
IC50 (µg/ml), pseudovirus neutralization [7]: > 50 µg/mL
IC50 [8]: > 50 µg/mL
IC50, pseudovirus neutralization [9]: > 50 µg/mL
IC50 (µg/ml), pseudovirus neutralization [10]: 4.01 µg/mL
IC50 (µg/ml), pseudovirus neutralization [11]: > 50 µg/mL
IC50 (µg/ml), pseudovirus neutralization [12]: 0.86 µg/mL
IC50, pseudovirus neutralization [13]: > 50 µg/mL
IC50 (µg/ml), pseudovirus neutralization [14]: > 50 µg/mL

5141_B17 (PGT-126) (antibody)
IC50, pseudovirus neutralization [15]: 0.011 µg/mL
IC50, pseudovirus neutralization [16]: 9.68 µg/mL
IC50, pseudovirus neutralization [17]: 0.002 µg/mL
IC50 (ug/mL), pseudovirus neutralization [18]: > 10 µg/mL
IC50, pseudovirus neutralization [19]: > 50 µg/mL
Fold IC50 increase relative to wild-type [20]: > 30 fold
IC50, pseudovirus neutralization [21]: 0.0091 µg/mL
IC50 (µg/mL), pseudovirus neutralization [22]: 0.008 µg/mL
IC50, pseudovirus neutralization [23]: > 10 µg/mL
Fold IC50 increase relative to wild-type (pseudovirus neutralization) [24]: 0.4 fold
IC50 (µg/mL), pseudovirus neutralization [25]: > 50 µg/mL
IC50 (µg/mL), pseudovirus neutralization [26]: > 50 µg/mL

5123_A06 (PGT-125) (antibody)
IC50, pseudovirus neutralization [15]: 0.005 µg/mL
IC50, pseudovirus neutralization [16]: 2.95 µg/mL
IC50, pseudovirus neutralization [17]: 0.004 µg/mL
IC50 (ug/mL), pseudovirus neutralization [18]: > 10 µg/mL
IC50, pseudovirus neutralization [19]: > 50 µg/mL
Fold IC50 increase relative to wild-type [20]: 0.8 fold
IC50, pseudovirus neutralization [21]: 0.0124 µg/mL
IC50 (µg/mL), pseudovirus neutralization [22]: 0.004 µg/mL
IC50, pseudovirus neutralization [23]: > 10 µg/mL
Fold IC50 increase relative to wild-type (pseudovirus neutralization) [24]: 0.7 fold
IC50 (µg/mL), pseudovirus neutralization [25]: > 50 µg/mL
IC50 (µg/mL), pseudovirus neutralization [26]: > 50 µg/mL

5343_B08 (PGT-135) (antibody)
IC50, pseudovirus neutralization [27]: > 50 µg/mL
IC50 (µg/mL), pseudovirus neutralization [28]: > 50 µg/mL
IC50, pseudovirus neutralization [29]: > 50 µg/mL
IC50 (µg/mL), pseudovirus neutralization [30]: > 50 µg/mL
IC50 (µg/mL), pseudovirus neutralization [31]: > 50 µg/mL
IC50 (ug/mL), pseudovirus neutralization [18]: 0.0139 µg/mL
Fold IC50 increase relative to wild-type [20]: > 30 fold
IC50 (µg/mL), pseudovirus neutralization [32]: > 50 µg/mL
Fold IC50 increase relative to wild-type (pseudovirus neutralization) [24]: 0.1 fold
IC50, pseudovirus neutralization [33]: > 50 µg/mL
IC50, pseudovirus neutralization [34]: > 50 µg/mL
IC50 (µg/mL), pseudovirus neutralization [35]: 1.29 µg/mL
IC50 (µg/mL), pseudovirus neutralization [36]: > 50 µg/mL

4E10 (antibody)
IC50 (µg/ml), pseudovirus neutralization [1]: 7.33 µg/mL
IC50 (µg/ml), pseudovirus neutralization [2]: 22.6 µg/mL
IC50 (µg/ml), pseudovirus neutralization [3]: 11 µg/mL
IC50, pseudovirus neutralization [4]: 2.49 µg/mL
IC50 [5]: 1.01 µg/mL
IC50 (µg/ml), pseudovirus neutralization [6]: 15.5 µg/mL
IC50 (µg/ml), pseudovirus neutralization [7]: 1.47 µg/mL
IC50 [8]: 1.01 µg/mL
IC50, pseudovirus neutralization [9]: 1.58 µg/mL
IC50 (µg/ml), pseudovirus neutralization [10]: 2.88 µg/mL
IC50 (µg/ml), pseudovirus neutralization [11]: 1.7 µg/mL
IC50 (µg/ml), pseudovirus neutralization [12]: 2.19 µg/mL
IC50, pseudovirus neutralization [13]: 9.44 µg/mL
IC50 (µg/ml), pseudovirus neutralization [14]: 6.45 µg/mL

2G12 (antibody)
IC50 (µg/ml), pseudovirus neutralization [1]: 9.24 µg/mL
IC50 (µg/ml), pseudovirus neutralization [2]: > 50 µg/mL
IC50 (µg/ml), pseudovirus neutralization [3]: > 50 µg/mL
IC50, pseudovirus neutralization [4]: > 50 µg/mL
IC50 [5]: > 50 µg/mL
IC50 (µg/ml), pseudovirus neutralization [6]: > 50 µg/mL
IC50 (µg/ml), pseudovirus neutralization [7]: > 50 µg/mL
IC50 [8]: > 50 µg/mL
IC50, pseudovirus neutralization [9]: > 50 µg/mL
IC50 (µg/ml), pseudovirus neutralization [10]: > 50 µg/mL
IC50 (µg/ml), pseudovirus neutralization [11]: 31.9 µg/mL
IC50 (µg/ml), pseudovirus neutralization [12]: > 50 µg/mL
IC50, pseudovirus neutralization [13]: > 50 µg/mL
IC50 (µg/ml), pseudovirus neutralization [14]: > 50 µg/mL

1443_C16 (PG16) (TCN-116) (antibody)
IC50 (µg/ml), pseudovirus neutralization [1]: > 50 µg/mL
IC50 (µg/ml), pseudovirus neutralization [2]: 0.04 µg/mL
IC50 (µg/ml), pseudovirus neutralization [3]: > 50 µg/mL
IC50, pseudovirus neutralization [4]: 0.01 µg/mL
IC50 [5]: 0.08 µg/mL
IC50 (µg/ml), pseudovirus neutralization [6]: 3.83 µg/mL
IC50 (µg/ml), pseudovirus neutralization [7]: > 50 µg/mL
IC50 [8]: 0.27 µg/mL
IC50, pseudovirus neutralization [9]: 0.01 µg/mL
IC50 (µg/ml), pseudovirus neutralization [10]: 0.24 µg/mL
IC50 (µg/ml), pseudovirus neutralization [11]: > 50 µg/mL
IC50 (µg/ml), pseudovirus neutralization [12]: 3.06 µg/mL
IC50, pseudovirus neutralization [13]: 0.01 µg/mL
IC50 (µg/ml), pseudovirus neutralization [14]: 0.004 µg/mL

4858_P08 (PGT-123) (antibody)
IC50, pseudovirus neutralization [15]: 0.023 µg/mL
IC50, pseudovirus neutralization [16]: > 50 µg/mL
IC50, pseudovirus neutralization [17]: 0.705 µg/mL
IC50 (ug/mL), pseudovirus neutralization [18]: > 10 µg/mL
IC50, pseudovirus neutralization [19]: 0.055 µg/mL
Fold IC50 increase relative to wild-type [20]: > 50 fold
IC50, pseudovirus neutralization [21]: 0.846 µg/mL
IC50 (µg/mL), pseudovirus neutralization [22]: 3.37 µg/mL
IC50, pseudovirus neutralization [23]: > 10 µg/mL
Fold IC50 increase relative to wild-type (pseudovirus neutralization) [24]: 0.5 fold
IC50 (µg/mL), pseudovirus neutralization [25]: 2.51 µg/mL
IC50 (µg/mL), pseudovirus neutralization [26]: 0.08 µg/mL

5145_B14 (PGT-127) (antibody)
IC50, pseudovirus neutralization [15]: 0.014 µg/mL
IC50, pseudovirus neutralization [16]: > 50 µg/mL
IC50, pseudovirus neutralization [17]: 0.017 µg/mL
IC50, pseudovirus neutralization [19]: > 50 µg/mL
Fold IC50 increase relative to wild-type [20]: > 500 fold
IC50 (µg/mL), pseudovirus neutralization [22]: 0.018 µg/mL
Fold IC50 increase relative to wild-type (pseudovirus neutralization) [24]: 2 fold
IC50 (µg/mL), pseudovirus neutralization [25]: > 50 µg/mL
IC50 (µg/mL), pseudovirus neutralization [26]: > 50 µg/mL

5147_N06 (PGT-130) (antibody)
IC50, pseudovirus neutralization [27]: > 50 µg/mL
IC50 (µg/mL), pseudovirus neutralization [28]: > 50 µg/mL
IC50, pseudovirus neutralization [29]: 0.095 µg/mL
IC50 (µg/mL), pseudovirus neutralization [30]: > 50 µg/mL
IC50 (µg/mL), pseudovirus neutralization [31]: > 50 µg/mL
IC50 (ug/mL), pseudovirus neutralization [18]: > 10 µg/mL
Fold IC50 increase relative to wild-type [20]: 0.5 fold
IC50 (µg/mL), pseudovirus neutralization [32]: 0.156 µg/mL
IC50, pseudovirus neutralization [21]: 0.635 µg/mL
IC50, pseudovirus neutralization [23]: > 10 µg/mL
Fold IC50 increase relative to wild-type (pseudovirus neutralization) [24]: 3.9 fold
IC50, pseudovirus neutralization [33]: > 50 µg/mL
IC50, pseudovirus neutralization [34]: > 50 µg/mL
IC50 (µg/mL), pseudovirus neutralization [35]: > 50 µg/mL
IC50 (µg/mL), pseudovirus neutralization [36]: > 50 µg/mL
